For this experiment, the target named is human calmodulin wild-type (pIRES-DsRed-HisB-cMyc-CaM WT) (human) (UniProt P0DP23).

“human SK4 R352D/R355D (from UniProt O15554 1-427) (natural protein)” yielded a TRAM-34 sensitive whole-cell K+ current density at +60 mV, HEK293T cells co-transfected with SK4 R352D/R355D and CaM WT, 0.1 uM Cai (not different from background) of 54 pA/pF.

The values are drawn from PMC11050286.
